Experimental data from patent US20130149248A1.
Where two headings read alike, the source gives them in different places.

How the values were obtained:
[1] = molecular target: αvβ6 on VB6 cells (human) (UniProt P06756); assay: cell-based or functional assay
[2] = molecular target: T1, recombinant soluble αvβ6, P06756; assay: competitive sandwich ELISA; rsαvβ6 captured on anti-αv P2W7; competitor biotinylated fibronectin
T1 chain 1: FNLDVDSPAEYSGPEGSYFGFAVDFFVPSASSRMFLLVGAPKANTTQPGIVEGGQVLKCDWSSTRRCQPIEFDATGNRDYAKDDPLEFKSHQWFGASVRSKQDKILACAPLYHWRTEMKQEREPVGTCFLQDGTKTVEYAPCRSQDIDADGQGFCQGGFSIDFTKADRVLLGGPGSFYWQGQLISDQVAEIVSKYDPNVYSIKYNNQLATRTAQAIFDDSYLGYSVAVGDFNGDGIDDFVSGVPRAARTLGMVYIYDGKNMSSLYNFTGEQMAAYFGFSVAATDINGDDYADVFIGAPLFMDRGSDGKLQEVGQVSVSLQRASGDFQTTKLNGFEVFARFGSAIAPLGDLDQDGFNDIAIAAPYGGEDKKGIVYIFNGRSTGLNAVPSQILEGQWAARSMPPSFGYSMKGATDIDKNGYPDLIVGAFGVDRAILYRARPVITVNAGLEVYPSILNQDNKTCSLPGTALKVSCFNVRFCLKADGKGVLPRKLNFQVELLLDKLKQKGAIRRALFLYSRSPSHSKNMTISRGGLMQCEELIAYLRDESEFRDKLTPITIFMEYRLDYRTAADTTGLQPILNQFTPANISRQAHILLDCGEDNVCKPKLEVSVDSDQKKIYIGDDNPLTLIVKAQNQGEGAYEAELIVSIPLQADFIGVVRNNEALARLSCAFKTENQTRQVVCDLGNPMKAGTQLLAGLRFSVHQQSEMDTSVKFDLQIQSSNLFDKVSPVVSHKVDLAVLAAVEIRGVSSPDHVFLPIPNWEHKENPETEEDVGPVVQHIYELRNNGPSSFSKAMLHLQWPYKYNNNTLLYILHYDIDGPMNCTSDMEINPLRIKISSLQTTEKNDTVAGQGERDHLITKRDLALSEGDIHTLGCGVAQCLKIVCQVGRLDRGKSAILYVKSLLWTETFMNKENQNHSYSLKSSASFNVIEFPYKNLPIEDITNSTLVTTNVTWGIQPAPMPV
T1 chain 2: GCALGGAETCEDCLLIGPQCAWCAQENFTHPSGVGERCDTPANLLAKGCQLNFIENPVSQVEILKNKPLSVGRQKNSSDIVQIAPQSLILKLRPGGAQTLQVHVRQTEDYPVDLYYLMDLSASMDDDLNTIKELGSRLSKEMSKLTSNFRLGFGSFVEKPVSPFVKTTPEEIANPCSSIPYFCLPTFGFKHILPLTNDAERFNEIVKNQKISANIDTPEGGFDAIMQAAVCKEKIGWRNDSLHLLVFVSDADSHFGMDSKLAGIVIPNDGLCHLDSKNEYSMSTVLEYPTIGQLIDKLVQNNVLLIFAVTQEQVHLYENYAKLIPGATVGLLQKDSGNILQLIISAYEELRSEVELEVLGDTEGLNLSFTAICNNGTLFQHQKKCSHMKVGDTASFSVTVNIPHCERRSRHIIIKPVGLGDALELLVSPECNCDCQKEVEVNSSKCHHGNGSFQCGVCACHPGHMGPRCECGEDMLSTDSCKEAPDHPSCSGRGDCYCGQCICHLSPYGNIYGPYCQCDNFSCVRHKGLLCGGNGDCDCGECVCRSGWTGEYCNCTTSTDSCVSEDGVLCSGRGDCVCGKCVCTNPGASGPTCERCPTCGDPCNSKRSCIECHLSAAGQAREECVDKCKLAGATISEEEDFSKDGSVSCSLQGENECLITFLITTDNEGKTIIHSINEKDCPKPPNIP

[3] = molecular target: T2, αvβ6 on 3T3β6.19 cells (mouse; human), P43406; assay: cell-based or functional assay
T2 chain 1: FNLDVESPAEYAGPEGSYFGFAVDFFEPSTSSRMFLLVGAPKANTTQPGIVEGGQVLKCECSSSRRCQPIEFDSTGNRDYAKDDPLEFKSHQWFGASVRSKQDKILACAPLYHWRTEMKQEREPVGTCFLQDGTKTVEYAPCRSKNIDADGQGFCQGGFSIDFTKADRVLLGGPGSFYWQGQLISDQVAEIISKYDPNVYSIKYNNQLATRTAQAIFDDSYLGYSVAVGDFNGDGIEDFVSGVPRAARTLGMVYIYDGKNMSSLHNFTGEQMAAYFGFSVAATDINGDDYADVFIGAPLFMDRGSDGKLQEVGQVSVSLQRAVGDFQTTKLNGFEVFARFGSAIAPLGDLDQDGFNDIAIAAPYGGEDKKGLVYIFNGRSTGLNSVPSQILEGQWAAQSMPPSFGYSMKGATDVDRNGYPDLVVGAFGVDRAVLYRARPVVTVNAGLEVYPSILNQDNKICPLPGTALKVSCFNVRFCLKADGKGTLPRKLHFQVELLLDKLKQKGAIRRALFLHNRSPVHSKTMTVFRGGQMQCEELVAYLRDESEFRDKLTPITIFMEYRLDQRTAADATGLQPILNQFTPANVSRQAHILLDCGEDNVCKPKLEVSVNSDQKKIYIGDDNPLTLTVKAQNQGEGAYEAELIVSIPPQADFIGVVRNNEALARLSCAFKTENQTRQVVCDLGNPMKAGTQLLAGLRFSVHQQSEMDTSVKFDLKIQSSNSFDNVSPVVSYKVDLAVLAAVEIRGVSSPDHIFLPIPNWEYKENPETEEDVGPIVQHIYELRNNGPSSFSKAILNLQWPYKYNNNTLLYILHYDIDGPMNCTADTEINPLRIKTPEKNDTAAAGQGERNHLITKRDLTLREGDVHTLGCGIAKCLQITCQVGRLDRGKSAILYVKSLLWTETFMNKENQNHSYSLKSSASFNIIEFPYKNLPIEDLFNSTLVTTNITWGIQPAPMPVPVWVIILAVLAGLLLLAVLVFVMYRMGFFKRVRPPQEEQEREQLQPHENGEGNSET
T2 chain 2: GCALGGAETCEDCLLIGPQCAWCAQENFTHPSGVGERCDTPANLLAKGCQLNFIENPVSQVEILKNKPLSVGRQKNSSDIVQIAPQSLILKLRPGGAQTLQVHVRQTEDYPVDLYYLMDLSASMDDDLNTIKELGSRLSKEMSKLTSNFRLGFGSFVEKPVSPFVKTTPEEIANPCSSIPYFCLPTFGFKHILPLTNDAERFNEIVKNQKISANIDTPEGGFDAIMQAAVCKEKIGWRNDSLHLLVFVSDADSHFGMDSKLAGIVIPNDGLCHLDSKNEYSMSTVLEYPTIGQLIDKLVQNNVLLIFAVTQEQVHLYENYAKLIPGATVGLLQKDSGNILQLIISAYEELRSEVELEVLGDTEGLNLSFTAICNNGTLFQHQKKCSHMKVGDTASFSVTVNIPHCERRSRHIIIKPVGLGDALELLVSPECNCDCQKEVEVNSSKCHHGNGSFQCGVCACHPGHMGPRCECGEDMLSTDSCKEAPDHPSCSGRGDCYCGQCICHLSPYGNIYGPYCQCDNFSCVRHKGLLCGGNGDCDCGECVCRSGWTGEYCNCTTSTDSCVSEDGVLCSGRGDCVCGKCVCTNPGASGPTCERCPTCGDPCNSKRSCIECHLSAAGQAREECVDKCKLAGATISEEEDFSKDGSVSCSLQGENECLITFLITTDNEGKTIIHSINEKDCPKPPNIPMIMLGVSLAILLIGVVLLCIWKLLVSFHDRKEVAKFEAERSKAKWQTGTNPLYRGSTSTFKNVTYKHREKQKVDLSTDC

[4] = molecular target: T1, recombinant soluble αvβ6, P06756; assay: non-competitive binding ELISA; biotinylated peptide on immobilised rsαvβ6
[5] = molecular target: T1, recombinant soluble αvβ6, P06756
[6] = molecular target: T1, recombinant soluble αvβ6, P06756; assay: competitive (Screening) ELISA; rsαvβ6 captured on anti-αv P2W7; competitor biotinylated fibronectin

Question: How did the IC50, inhibition of adhesion of VB6 cells to LAP [1] turn out when A20FMDV1 (peptide) was run?
Answer: The IC50, inhibition of adhesion of VB6 cells to LAP was 38200 nM.

Question: Which IC50 [2] does the source give for FTTGRRGDLATI (modifications not checked) [DD2] here?
Answer: The IC50 was 30.9 nM.

Question: Which adhesion of 3T3β6.19 to LAP in the presence of 20 µM peptide, % of control cell adhesion (% of control cell adhesion) [3] does the source give for TGRRGDLATI (modifications not checked) [DD3] here?
Answer: Its adhesion of 3T3β6.19 to LAP in the presence of 20 µM peptide, % of control cell adhesion (% of control cell adhesion) is 79.

Question: And the IC50 [2]?
Answer: The IC50 was 22.6 nM.

Question: GFTTGRRGDLATIHGMNRPF (modifications not checked) [A20LAP] was tested. Which adhesion of 3T3β6.19 to LAP in the presence of 20 µM peptide, % of control cell adhesion (% of control cell adhesion) [3] did it give?
Answer: The adhesion of 3T3β6.19 to LAP in the presence of 20 µM peptide, % of control cell adhesion (% of control cell adhesion) was 32.

Question: For RRGDLATIH (modifications not checked) [DD1], which IC50 of inhibition of αvβ6-dependent binding of 3T3β6.19 to LAP [3] is on record?
Answer: Its IC50 of inhibition of αvβ6-dependent binding of 3T3β6.19 to LAP is 216000 nM.

Question: What about the adhesion of 3T3β6.19 to LAP in the presence of 20 µM peptide, % of control cell adhesion (% of control cell adhesion) [3] of the same molecule?
Answer: The adhesion of 3T3β6.19 to LAP in the presence of 20 µM peptide, % of control cell adhesion (% of control cell adhesion) was 57.

Question: Which EC50 [4] does the source give for CYVPNLRGDLQVLAQKVAKC (modifications not checked) [B-DBD2] here?
Answer: Its EC50 is 1.7 nM.

Question: Which IC50 [5] does the source give for VPNLRGDLQVLA (modifications not checked) [DD19] here?
Answer: The IC50 was 85 nM.

Question: What about the IC50 of inhibition of αvβ6-dependent binding of cells to LAP [3] of the same molecule?
Answer: Its IC50 of inhibition of αvβ6-dependent binding of cells to LAP is 190000 nM.

Question: SAAARGDLEQLTSLLQNNVN (modifications not checked) [P_18INK] was tested. Which IC50 [6] did it give?
Answer: The IC50 was 23 nM.
